This is an account of results in patent US20030235558A1.

The target in this test is ^125I-labeled multiubiquitin chains. As to the kind of experiment: GST fusion on glutathione agarose beads, ^125I-labeled multiubiquitin chains, gamma-counting.

Turning to “GST fused p62 ubiquitin binding region (GST.p62C259) (from UniProt O08623 363-439)”, the Multiubiquitin Chain Bound (%) worked out at 100% and the Multiubiquitin Chain Bound cpm came out at 5210 cpm.
The substance “GST fused p62 ubiquitin binding region mutant L394/L395 → A/A (from UniProt O08623 363-439)” came in with a Multiubiquitin Chain Bound (%) of 17% and a Multiubiquitin Chain Bound cpm of 877 cpm.
